Test results: patent US10487337B2, “Methods for monocot plant improvement” (Agresearch Limited, priority 2014, dated 2019)

B1: TPL: TOPLESS transcriptional co-repressor of Arabidopsis, SEQ ID NO: 60 (protein)
chain: MSSLSRELVFLILQFLDEEKFKETVHKLEQESGFFFNMKYFEDEVHNGNWDEVEKYLSGFTKVDDNRYSMKIFFEIRKQKYLEALDKHDRPKAVDILVKDLKVFSTFNEELFKEITQLLTLENFRENEQLSKYGDTKSARAIMLVELKKLIEANPLFRDKLQFPTLRNSRLRTLINQSLNWQHQLCKNPRPNPDIKTLFVDHSCGPPNGARAPSPVNNPLLGGIPKAGGFPPLGAHGPFQPTASPVPTPLAGWMSSPSSVPHPAVSAGAIALGGPSIPAALKHPRTPPTNASLDYPSADSEHVSKRTRPMGISDEVNLGVNMLPMSFSGQAHGHSPAFKAPDDLPKTVARTLSQGSSPMSMDFHPIKQTLLLVGTNVGDIGLWEVGSRERLVQKTFKVWDLSKCSMPLQAALVKEPVVSVNRVIWSPDGSLFGVAYSRHIVQLYSYHGGEDMRQHLEIDAHVGGVNDISFSTPNKQLCVITCGDDKTIKVWDAATGVKRHTFEGHEAPVYSVCPHYKENIQFIFSTALDGKIKAWLYDNMGSRVDYDAPGRWCTTMAYSADGTRLFSCGTSKDGESFIVEWNESEGAVKRTYQGFHKRSLGVVQFDTTKNRYLAAGDDFSIKFWDMDAVQLLTAIDGDGGLQASPRIRFNKEGSLLAVSGNENVIKIMANSDGLRLLHTFENISSESSKPAINSIAAAAAAAATSAGHADRSANVVSIQGMNGDSRNMVDVKPVITEESNDKSKIWKLTEVSEPSQCRSLRLPENLRVAKISRLIFTNSGNAILALASNAIHLLWKWQRNERNATGKATASLPPQQWQPASGILMTNDVAETNPEEAVPCFALSKNDSYVMSASGGKISLFNMMTFKTMATFMPPPPAATFLAFHPQDNNIIAIGMDDSTIQIYNVRVDEVKSKLKGHSKRITGLAFSNVLNVLVSSGADAQLCVWNTDGWEKQRSKVLPLPQGRPNSAPSDTRVQFHQDQAHFLVVHETQLAIYETTKLECMKQWAVRESLAPITHATFSCDSQLVYASFMDATVCVFSSANLRLRCRVNPSAYLPASLSNSNVHPLVIAAHPQEPNMFAVGLSDGGVHIFEPLESEGKWGVAPPAENGSASGAPTAPSVGASASDQPQR
modifications: Consensus sequence

How the values were obtained:
[1] = target: T1, BZR1 (Arabidopsis thaliana, UniProt Q8S307); experiment: BiFC interaction with BZR1 in Nicotiana benthamiana leaves; type: cell-based; details: fully expanded leaves, co-expressed with cYFP-BZR1
T1 construct: expressed in transfected cells; host or cells: Nicotiana benthamiana leaves (Agrobacterium infiltration)
T1 sequence (Q8S307 1-336): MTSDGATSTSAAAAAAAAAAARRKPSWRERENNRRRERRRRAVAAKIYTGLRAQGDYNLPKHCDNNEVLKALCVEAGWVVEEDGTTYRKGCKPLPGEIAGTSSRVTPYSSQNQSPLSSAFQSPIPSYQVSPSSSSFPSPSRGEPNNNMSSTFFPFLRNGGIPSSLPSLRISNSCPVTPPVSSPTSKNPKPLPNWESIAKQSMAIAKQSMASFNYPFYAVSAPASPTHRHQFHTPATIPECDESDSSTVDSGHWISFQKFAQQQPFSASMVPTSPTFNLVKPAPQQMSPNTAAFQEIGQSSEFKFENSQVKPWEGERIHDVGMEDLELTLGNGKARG
Excerpt: The binary BiFC-Gateway YFP vectors pDEST-VYNE(R)^GW (Venus aa 1-173) and pDEST-VYCE(R)^GW (Venus aa 156-239) with N-terminal fusions, were used to construct the following vectors; pDESTnYFP-BZR1, pDESTnYFP-NINJA, pDESTnYFP-PPD1, pDESTcYFP-BZR1, pDESTcYFP-PPD1, pDESTcYFP-PPD1Δppd, pDESTcYFP-PPD1Δtify and pDESTcYFP-PPD1Δjas*. For transient in planta expression of proteins interacting with PPD1 or BZR, NINJA and TPL were Gateway® sub-cloned into pRSh1, to construct pRSh1-NINJA and pRSh1-TPL. Plasmids for co-immunoprecipitation: A synthesised DNA construct encoding PPD1 with a 3×c-myc C-terminal fusion was sub-cloned into pRSh1 to produce pRSh1-PPD1-3×c-myc, while the NINJA cDNA sequence was sub-cloned into pB7FWG2,0 (Karimi et al 2002, Trends Plant Sci. 7, 193-195) to construct pB7FWG2-NINJA-GFP. When expressed these constructs produced proteins listed in sequences 60, 62, 70 71 72 73 74 75 76 77 78 79: including TOPLESS (TPL), NINJA, Bimolecular Fluorescence (BiFC) nYFP, BiFC cYFP, BiFC nYFP-NINJA, BiFC nYFP-BZR1, BiFC cYFP-PPD1, BiFC cYFP-NINJA, BiFC cYFP-BZR1, BiFC cYFP-PPD1-ppd, BiFC cYFP-PPD1-tify, BiFC cYFP-PPD1-jas*.
Transient BiFC experiments were performed using combinations of pDESTnYFP and pDESTcYFP plasmids, with or without plasmids for the expression of NINJA (pRSh1-NINJA) or TPL (pRSh1-TPL) and Agrobacterium-infiltration of Nicotiana benthamiana leaves. For infiltration Agrobacterium tumefaciens GV3101 strains containing the binary vectors were re-suspended from plates and prepared for transformation as described for the LUC assay. All YFP and expression strains were mixed in ratios of 1:1 (vol/vol) with the addition of strain P19 at 1/10th volume. Five leaf discs were sampled from each infiltrated leaf after 40 h. Two hours prior to sampling for microscopic fluorescence observations leaves were infiltrated with a 1 μg/ml DAPI solution to stain nuclei. YFP fluorescence and DAPI staining was detected using an Olympus Fluoview FV10i confocal laser scanning microscope. Each experiment was repeated twice.

[2] = target: T2, BZR1 (Arabidopsis thaliana, UniProt Q8S307); experiment: Yeast two hybrid (Y2H) interaction with BZR1; type: binding
T2 construct: expressed in transfected cells; host or cells: yeast strain MaV203
T2 sequence (Q8S307 with tags, fused parts or gaps): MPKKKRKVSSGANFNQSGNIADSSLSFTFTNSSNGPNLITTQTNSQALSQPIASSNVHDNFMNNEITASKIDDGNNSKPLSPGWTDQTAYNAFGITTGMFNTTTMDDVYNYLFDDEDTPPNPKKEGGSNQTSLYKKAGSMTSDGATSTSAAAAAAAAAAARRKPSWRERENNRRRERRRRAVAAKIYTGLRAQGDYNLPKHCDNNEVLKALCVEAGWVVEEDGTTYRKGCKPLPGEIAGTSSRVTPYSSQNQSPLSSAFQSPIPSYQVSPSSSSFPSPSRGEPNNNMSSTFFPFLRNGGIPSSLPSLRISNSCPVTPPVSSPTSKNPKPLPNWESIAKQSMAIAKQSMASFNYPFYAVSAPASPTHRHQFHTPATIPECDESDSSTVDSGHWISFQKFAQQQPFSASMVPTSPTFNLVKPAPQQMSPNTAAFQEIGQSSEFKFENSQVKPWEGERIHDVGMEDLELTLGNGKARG
Excerpt: The constructs for Y2H and BiFC assays were generated as follows. Arabidopsis DNA sequences encoding the open reading frames for; At4g14713 (PPD1) and truncation and deletion derivatives of PPD1: PPD1; PPD1Δppd (N-terminal truncation of sequences encoding aa 1-61), PPD1Δtify, (internal deletion of sequences encoding aa 154-186), PPD1Δjas*(C-terminal truncation of sequences encoding aa 229-313) (FIG. 5), At4g28910 (NINJA), At1g15750 (TPL), At1g75080 (BZR1), a synthetic PUAS-35S promoter, and sequences encoding GAL4DBD and c-myc fusion proteins were synthesised and sequence verified by GeneArt. Most sequences were supplied as clones in pENTR221 ready for Gateway cloning into yeast and plant expression vectors. The exception, a promoter sequence for in planta transcription activation assays, incorporating 5′ Xho1 and 3′ Nco1 restriction enzyme sites, was supplied cloned in pMA-RQ. Plasmids for the transient LUC reporter assay: A synthetic promoter with 5×UAS GAL4 DNA binding sites upstream of a −105 bp CaMV35S promoter was cloned into the XhoI-NcoI sites within a dual luciferase construct pNWA62, which contains an intron-containing Firefly Luciferase gene (LUC) and 35Spro::Renilla Luciferase (REN) as an internal standard, to construct pAML7. […]

| Molecule | interaction with BZR1 [1] | interaction with BZR1 [2] |
| --- | --- | --- |
| nYFP-PPD1: BiFC fusion of PPD1 with the N-terminal Venus YFP fragment | no interaction was observed |  |
| B1 |  | direct interaction occurs |
